Assay results as given in patent publication US20240239878A1 (SHANGHAI QILU PHARMACEUTICAL RESEARCH AND DEVELOPMENT CENTRE, published 2024).
Where two headings read alike, the source gives them in different places.

Key:
[1] = target: T1, Cynomolgus monkey DLL3 on HEK293 cells (HEK293-cyno DLL3) (Cynomolgus monkey, UniProt Q9NYJ7 27-618 (human entry)); assay: flow cytometry, HEK293-cyno DLL3 cells
T1 chain: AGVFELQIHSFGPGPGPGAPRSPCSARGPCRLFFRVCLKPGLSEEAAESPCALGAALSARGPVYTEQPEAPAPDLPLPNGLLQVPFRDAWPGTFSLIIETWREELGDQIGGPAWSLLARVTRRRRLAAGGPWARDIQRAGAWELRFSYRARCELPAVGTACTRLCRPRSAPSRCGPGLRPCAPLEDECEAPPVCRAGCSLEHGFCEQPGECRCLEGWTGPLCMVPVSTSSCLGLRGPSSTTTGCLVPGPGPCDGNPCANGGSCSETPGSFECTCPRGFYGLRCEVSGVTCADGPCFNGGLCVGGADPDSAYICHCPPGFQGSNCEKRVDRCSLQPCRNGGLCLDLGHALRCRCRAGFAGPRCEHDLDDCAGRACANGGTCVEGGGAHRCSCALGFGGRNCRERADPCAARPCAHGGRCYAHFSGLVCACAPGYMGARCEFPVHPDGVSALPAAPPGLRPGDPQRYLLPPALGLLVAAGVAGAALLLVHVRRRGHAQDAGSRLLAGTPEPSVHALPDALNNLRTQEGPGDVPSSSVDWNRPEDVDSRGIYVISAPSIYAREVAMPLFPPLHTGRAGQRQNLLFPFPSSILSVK
Procedure: (§1) Monoclonal selection was performed, and the expression level of DLL3 protein in the monoclonal cells were identified by flow cytometry. The culture was expanded and stored in storage for later use. SHP-77 and HEK293-cyno DLL3 cells were cultured. The culture medium for SHP-77 cells were RPMI1640+10% FBS, and the culture medium for HEK293 cyno DLL3 cells were DMEM+10% FBS+200 μg/ml Hygromycin. The cells were cultured in a T75 cell culture flask at a 37° ° C. in a 5% CO₂ incubator. When using cells, they are washed with sterile DPBS, digested with 0.25% trypsin EDTA for about 5 minutes, and then stopped with a complete medium.
(§2) The digested cells were centrifuged at 1000 rpm for 5 min at room temperature. The supernatant was discarded and the cells were resuspended in 100 μL of 1% BSA (in PBS). The cells were counted and adjusted to a cell density of 1E6/m. The dilute cells were seeded in a 96-well round-bottom culture plate (corning 3799), and centrifuged at 1500 rpm for 5 min at 4° C. The supernatant was discarded and the cells were stored at 4° C. until use. Antibody samples to be tested were diluted with 1% BSA (in PBS) at a starting concentration of 100 nM, downwards by a 10-fold gradient for 7 concentrations. The cells were resuspended with the diluted antibody at 100 μL/well and incubated for 1 hour at 4° C. The cells were centrifuged at 1500 rpm for 5 minutes at 4° C. and the supernatant was discarded. The cells were resuspended and washed with 160 μL of 1% BSA (in PBS), centrifuged at 1500 rpm for 5 minutes at 4° C. The supernatant was discarded. The secondary antibody (goat anti human IgG Fc PE) was diluted 1:200 with 1% BSA (in PBS) according to the manufacturer's instructions and the cells were resuspended with the diluted secondary antibody. 100 μL/well, and incubated for 0.5 h at 4° C. The cells were centrifuged at 1500 rpm for 5 minutes at 4° C. and the supernatant was discarded. The cells were resuspended and washed with 160 μL of 1% BSA (in PBS), centrifuged at 1500 rpm for 5 minutes at 4° C. The supernatant was discarded. The cells were resuspended in 100 μL of 1% BSA (in PBS), and filtered across a 300 mesh gauze. The mean fluorescence intensity of the PE channels was measured by flow cytometry.

[2] = target: T1, Cynomolgus monkey DLL3 on HEK293 cells …; assay: flow cytometry, HEK293-cyno DLL3 cells
Procedure: (§3) SHP-77 and HEK293-cyno DLL3 cells were cultured. The culture medium for SHP-77 cells were RPMI1640+10% FBS, and the culture medium for HEK293 cyno DLL3 cells were DMEM+10% FBS+200 μg/ml Hygromycin. The cells were cultured in a T75 cell culture flask at a 37° C. 5% CO₂ incubator. When using cells, they are washed with sterile DPBS, digested with 0.25% trypsin EDTA for about 5 minutes, and then stopped with a complete medium.
as §2, with “antibody,” for “antibody.”
(§4) The analyzed mean fluorescence intensity was imported into Graphpad to analyze the median-binding concentration (hereinafter referred to as EC50) of antibody and cell and the top mean fluorescence intensity (Top MFI).

[3] = target: T2, human DLL3 on SHP-77 cells (human, UniProt Q9NYJ7 27-618); assay: flow cytometry, SHP-77 cells
T2 construct: also called DLL3-expressing cells (SHP-77)
T2 sequence: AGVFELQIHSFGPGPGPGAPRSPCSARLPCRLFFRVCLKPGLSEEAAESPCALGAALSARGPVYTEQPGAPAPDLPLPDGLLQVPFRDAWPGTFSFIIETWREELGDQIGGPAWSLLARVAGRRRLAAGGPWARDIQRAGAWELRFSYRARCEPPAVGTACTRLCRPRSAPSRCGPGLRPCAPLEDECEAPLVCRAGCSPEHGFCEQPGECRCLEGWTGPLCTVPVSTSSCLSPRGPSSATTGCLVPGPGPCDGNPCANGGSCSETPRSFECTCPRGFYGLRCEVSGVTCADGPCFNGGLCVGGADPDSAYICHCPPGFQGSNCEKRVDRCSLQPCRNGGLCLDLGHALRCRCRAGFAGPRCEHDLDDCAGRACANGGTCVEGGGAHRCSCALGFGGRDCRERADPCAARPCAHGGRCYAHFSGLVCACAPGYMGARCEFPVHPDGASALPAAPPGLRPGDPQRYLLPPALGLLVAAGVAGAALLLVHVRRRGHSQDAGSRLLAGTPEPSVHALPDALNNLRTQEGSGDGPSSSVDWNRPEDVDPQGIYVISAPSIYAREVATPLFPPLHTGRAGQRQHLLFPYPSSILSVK
Procedure: as §3
as §2, with “antibody,” for “antibody.”
as §4

[4] = target: T2, human DLL3 on SHP-77 cells; assay: flow cytometry, SHP-77 cells; remark: listed apart in the source
Procedure: as §1, §2

[5] = target: T3, human DLL3 antigen protein (Kactus Biosystems, Cat. No. DLL-HM103) (human, UniProt Q9NYJ7 27-492); assay: SPR (Biacore 8K), antibody captured on anti-human Fc, DLL3 in solution
T3 sequence: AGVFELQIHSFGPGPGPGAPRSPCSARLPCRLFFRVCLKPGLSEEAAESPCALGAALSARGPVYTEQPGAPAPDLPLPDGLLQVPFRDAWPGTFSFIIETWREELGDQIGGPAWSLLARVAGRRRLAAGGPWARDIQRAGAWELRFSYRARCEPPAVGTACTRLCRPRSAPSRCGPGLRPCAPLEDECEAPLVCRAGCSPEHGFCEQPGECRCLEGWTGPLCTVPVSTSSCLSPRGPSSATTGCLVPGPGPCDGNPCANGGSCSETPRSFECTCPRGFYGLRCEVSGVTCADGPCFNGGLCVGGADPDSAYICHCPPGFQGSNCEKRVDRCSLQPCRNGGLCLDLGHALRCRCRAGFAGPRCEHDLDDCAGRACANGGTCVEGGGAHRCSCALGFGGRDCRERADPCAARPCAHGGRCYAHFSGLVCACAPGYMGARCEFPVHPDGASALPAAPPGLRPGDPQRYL
Procedure: The affinity and kinetic properties of the humanized anti-DLL3 antibody to human DLL3 were analyzed using a Biacore 8K instrument. CM5 chips were activated with EDC and NHS, followed by immobilization of anti-human Fc murine mAb and blocked with ethanolamine.
Human DLL3 was diluted two-fold serially to serial concentrations (100 nM-0.39 nM) and associated for 90 s and dissociated for 600 s at a flow rate of 50 μL/min.
After completion of each round of the experiment, the captured antibody was removed together with the antigen by washing with a 3M MgCl₂ solution at a flow rate of 30 μL/min for 30 s to complete the regeneration of the chip. The raw data were analyzed using Biacore Insight Evaluation Software (3.0.12.15655) software and fitted with a (1:1) Langmuir model with.

[6] = target: T2, human DLL3 on SHP-77 cells; assay: flow cytometry, SHP-77 cells; remark: listed apart in the source
Procedure: SHP-77 cells were cultured. The culture medium for SHP-77 cells was RPMI1640+10% FBS. The cells were cultured in a T75 cell culture flask at a 37° C. 5% CO₂ incubator. When using cells, they are washed with sterile DPBS, digested with 0.25% trypsin EDTA for about 5 minutes, and then stopped with a complete medium.
as §2, with “plated” for “seeded”, “antibody,” for “antibody.”, “µL/well,” for “μL/well,”
as §4

Binder	EC50 [1] [nM]	Top MFI [1] [MFI]	EC50 [2] [nM]	Top MFI [2] [MFI]	EC50 [3] [nM]	Top MFI [3] [MFI]	EC50 [4] [nM]	Top MFI [4] [MFI]	Kd [5] [nM]	koff [5] [s⁻¹]	kon [5] [M⁻¹ s⁻¹]	EC50 [6] [nM]	Top MFI [6] [MFI]
DLL3-12 camelid-derived anti-DLL3 chimeric antibody (antibody, human IgG1, V domains shown) VH: QVQLVESGGGLVQPGESLRLSCAGSGFAFSSYDMHWVRQAPGKDFEWVSSISRDGRGPRYADFVKGRFTISKDNGRNMLYLQLNSLEIEDTAMYYCSKGYPIMGGTTQGTQVTVSS	0.073	220	1.38	232	0.114	935	0.092	886	–	–	–	–	–
DLL3-276 camelid-derived anti-DLL3 chimeric antibody (antibody, human IgG1, V domains shown) VH: QVQLVESGGGSVQAGGSLNLSCATSGSTASTTYMGWFRQAPGKGREGVAIIYTARDNPWYANSVKGRFIISQDNAKKTLYLQMNTLKPEDTATYYCAATLANPTRTAWGQGTLVTVSS	0.897	175	2.08	179	0.396	782	0.374	763	–	–	–	–	–
H-46A5A4 mouse hybridoma-derived humanized anti-DLL3 antibody (antibody, V domains shown) VH: QVQLVQSGAEVKKPGASVKVSCKASGYTFTDHTIHWVRQAPGQGLEWMGYIYPRDGYTMYNEKFKGRVTMTRDTSTSTVYMELSSLRSEDTAVYYCARAFHALDYWGQGTLVTVSS VL: DIQMTQSPSSLSASVGDRVTITCSASQGISNYLNWYQQKPGKAPKLLIYYTSSLHSGVPSRFSGSGSGTDFTFTISSLQPEDIATYYCQQYSKLPYTFGGGTKLEIK	–	–	–	–	–	–	–	–	0.811	0.000178	219000	1.35	1520
